From patent publication US20190248860A1 (Stanford University, published 2019) come the findings set out here.

For assay [1], the target named is T1, biotinylated IL-2Rβ ectodomain (C-terminal biotin acceptor peptide and hexahistidine tag) (UniProt P14784 27-240, C-terminally biotinylated on the biotin acceptor peptide (coexpressed BirA ligase)).
T1 construct: range 1-214; Yeast staining reagent; in the second generation screen used as monomer, then detected with SAV-PE; also called tetrameric IL-2Rβ; monomeric IL-2Rβ
T1 sequence: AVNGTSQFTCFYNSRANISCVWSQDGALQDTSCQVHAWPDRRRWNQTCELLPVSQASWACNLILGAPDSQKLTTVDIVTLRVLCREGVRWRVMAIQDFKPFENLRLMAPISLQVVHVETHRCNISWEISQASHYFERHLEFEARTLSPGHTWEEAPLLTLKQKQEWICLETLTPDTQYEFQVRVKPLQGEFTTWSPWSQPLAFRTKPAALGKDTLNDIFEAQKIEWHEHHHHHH
As to the kind of experiment: yeast display screen, labeling with 5 nM IL-2Rβ and then SAV-PE. Here is the method: Upon conclusion of selections, round four and round five yeast cultures were spread on SD-CAA plates, which yielded individual yeast colonies. 48 individual yeast clones from both rounds were grown in 96-well block format and screened by labeling with 5 nM IL-2Rβ and then SAV-PE.

Assay [2] deals with T2, IL-2Rβ ectodomain (amino acids 1-214), recombinant (UniProt P14784 27-240).
T2 construct: range 1-214; Used for the SPR and crystal entries; also called IL-2R13; interleukin 2 receptor beta
T2 sequence: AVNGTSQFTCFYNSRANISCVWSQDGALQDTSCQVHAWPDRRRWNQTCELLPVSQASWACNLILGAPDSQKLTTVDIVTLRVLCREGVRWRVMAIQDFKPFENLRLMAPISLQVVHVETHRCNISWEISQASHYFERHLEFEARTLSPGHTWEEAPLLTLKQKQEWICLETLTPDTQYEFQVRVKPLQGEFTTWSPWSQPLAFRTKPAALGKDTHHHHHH
Description: surface plasmon resonance. Background: SPR reads the build-up and loss of mass on a sensor chip optically.

Assay [3] has as its target T2, IL-2Rβ ectodomain (amino acids 1-214), …. As to the kind of experiment: method not given; SPR according to Example 10.
Assay [4] shares this target. Description: SPR affinities, as told in the structural discussion.

Numbering of substitutions follows the chain as printed.

B1: yeast-displayed IL-2 mutein C5 (ligand)
chain: APTSSSTKKTQLQLEHLLLDLQMILNGINNYKNPKLTRMLTFKFYMPKKATELKHLQCLEEELKHLEEVLNLANSKNFHVTPRDVVSNINVFVLELKGSETTFMCEYADETATIVEFLNRWITFCQSIISTLT
notes: Clone of the second generation yeast display library; also called C5 (yeast clone); not shown: yeast surface display fusion partner and linker encoded by vector pCT302
Turning to B1, the binding result in assay [1] was “binds”.

B2: IL-2 mutein C5 (ligand)
chain: APTSSSTKKTQLQLEHLLLDLQMILNGINNYKNPKLTRMLTFKFYMPKKATELKHLQCLEEELKHLEEVLNLANSKNFHVTPRDVVSNINVFVLELKGSETTFMCEYADETATIVEFLNRWITFCQSIISTLTHHHHHH
As usually defined, the koff is a measure of how fast the partners let go of each other. As a reminder, the Kd is the free concentration of one partner at which half of the binding sites on the other are occupied at equilibrium, for simple one-to-one binding. As for B2, the koff in assay [2] was found to be 0.016 s⁻¹. Moreover, the Kd in assay [3] was found to be 10 nM.

B3: IL-2 mutein D10 (ligand)
chain: B2 chain with H65P, N74H, V80F, T81D
notes: also called IL-2 D10; super-2
With B3, in assay [4], the “fold affinity gain from wild-type IL-2” value is around 300 fold.
